The sequences below were run on Escherichia coli TOP10 (assay: shrunken log2 fold change of peptide-encoding DNA abundance (4.5 h post-induction vs induction); higher = less antimicrobial activity (less host growth inhibition)). Details: time post-induction: 4.5 h; library: site-saturation at positions 5, 18, 19, 20.
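Note: peptides expressed intracellularly from a pBAD plasmid library in pooled LB shake-flask culture, induced with 0.3% L-arabinose, DNA abundance read by NGS, three biological replicates, DESeq2 with apeglm shrinkage.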

Row | Sequence | shrunken log2 fold change
1 | RRIRKRPPRLPRPRPRPNWYPRP | -0.185
2 | RRIRARPPRLPRPRPRPDHPPRP | 0.297
3 | RRIRMRPPRLPRPRPRPQAVPRP | 0.442
4 | RRIRWRPPRLPRPRPRPNVRPRP | 0.057
5 | RRIRARPPRLPRPRPRPLGIPRP | -0.12
6 | RRIRFRPPRLPRPRPRPGLQPRP | -0.18
7 | RRIRYRPPRLPRPRPRPPRMPRP | -0.215
8 | RRIRMRPPRLPRPRPRPIWCPRP | -0.234
9 | RRIRIRPPRLPRPRPRPSDGPRP | -0.0648
10 | RRIRTRPPRLPRPRPRPDNAPRP | -0.223
11 | RRIRCRPPRLPRPRPRPHLCPRP | -0.111
12 | RRIRDRPPRLPRPRPRPYIMPRP | -0.42
13 | RRIRTRPPRLPRPRPRPTKEPRP | -0.0327
14 | RRIRDRPPRLPRPRPRPNFIPRP | -0.0733
15 | RRIRMRPPRLPRPRPRPLMVPRP | 0.396
16 | RRIRERPPRLPRPRPRPCHWPRP | -0.0135
17 | RRIRMRPPRLPRPRPRPLSHPRP | 0.177
18 | RRIRYRPPRLPRPRPRPEYEPRP | -0.0176
19 | RRIRFRPPRLPRPRPRPVFLPRP | -0.327
20 | RRIRSRPPRLPRPRPRPEWYPRP | 0.341

Row | Sequence | shrunken log2 fold change
21 | RRIRHRPPRLPRPRPRPACLPRP | -0.221
22 | RRIRCRPPRLPRPRPRPCKTPRP | -0.0345
23 | RRIRYRPPRLPRPRPRPTMTPRP | -0.859
24 | RRIRERPPRLPRPRPRPGARPRP | 0.255
25 | RRIRTRPPRLPRPRPRPYDKPRP | -0.389
26 | RRIRVRPPRLPRPRPRPNAIPRP | 0.0894
27 | RRIRRRPPRLPRPRPRPMDDPRP | 0.211
28 | RRIRVRPPRLPRPRPRPLKHPRP | -0.486
29 | RRIRYRPPRLPRPRPRPEATPRP | 0.28
30 | RRIRERPPRLPRPRPRPATMPRP | -0.324
31 | RRIRYRPPRLPRPRPRPIYRPRP | -0.641
32 | RRIRVRPPRLPRPRPRPAMFPRP | -0.0685
33 | RRIRMRPPRLPRPRPRPDKYPRP | -0.212
34 | RRIRCRPPRLPRPRPRPARWPRP | 0.56
35 | RRIRMRPPRLPRPRPRPSWWPRP | 0.169
36 | RRIRIRPPRLPRPRPRPDTHPRP | -1.12
37 | RRIRWRPPRLPRPRPRPPNPPRP | 0.878
38 | RRIRARPPRLPRPRPRPPAEPRP | 1.15
39 | RRIRFRPPRLPRPRPRPYMGPRP | -0.225
40 | RRIRCRPPRLPRPRPRPICCPRP | -0.166

Row | Sequence | shrunken log2 fold change
41 | RRIRPRPPRLPRPRPRPILQPRP | -0.224
42 | RRIRTRPPRLPRPRPRPPHPPRP | 0.255
43 | RRIRIRPPRLPRPRPRPAFAPRP | 0.207
44 | RRIRNRPPRLPRPRPRPTCDPRP | 0.0801
45 | RRIRNRPPRLPRPRPRPNDDPRP | 0.0813
46 | RRIRRRPPRLPRPRPRPIAGPRP | -0.12
47 | RRIRPRPPRLPRPRPRPWTTPRP | -0.012
48 | RRIRHRPPRLPRPRPRPPKHPRP | 0.2
49 | RRIRPRPPRLPRPRPRPFGLPRP | -0.209
50 | RRIRKRPPRLPRPRPRPANKPRP | 0.142
51 | RRIRSRPPRLPRPRPRPFTEPRP | -0.0824
52 | RRIRDRPPRLPRPRPRPNPVPRP | -0.41
53 | RRIRQRPPRLPRPRPRPQKNPRP | -0.297
54 | RRIRVRPPRLPRPRPRPPWMPRP | -0.0435
55 | RRIRQRPPRLPRPRPRPIKTPRP | -0.0201
56 | RRIRTRPPRLPRPRPRPPTPPRP | 0.368
57 | RRIRMRPPRLPRPRPRPGQKPRP | 0.142
58 | RRIRQRPPRLPRPRPRPRTDPRP | 0.00812
59 | RRIRRRPPRLPRPRPRPDPVPRP | 0.0811
60 | RRIRQRPPRLPRPRPRPARRPRP | 0.486
